According to patent US20110046068A1 (MEDICAL RESEARCH COUNCIL, published 2011):
Non-standard residues stand in square brackets, D forms with d.

B1: 239 (peptide)
peptide: Ac-[dY][dN]WNSFGWRF-NH2
SMILES: CC(=O)N[C@H](Cc1ccc(O)cc1)C(=O)N[C@H](CC(N)=O)C(=O)N[C@@H](Cc1c[nH]c2ccccc12)C(=O)N[C@@H](CC(N)=O)C(=O)N[C@@H](CO)C(=O)N[C@@H](Cc1ccccc1)C(=O)NCC(=O)N[C@@H](Cc1c[nH]c2ccccc12)C(=O)N[C@@H](CCCNC(=N)N)C(=O)N[C@@H](Cc1ccccc1)C(N)=O
B2: 247 (peptide)
peptide: Ac-[dA]NWNSFG[dW]RF-NH2
SMILES: CC(=O)N[C@H](C)C(=O)N[C@@H](CC(N)=O)C(=O)N[C@@H](Cc1c[nH]c2ccccc12)C(=O)N[C@@H](CC(N)=O)C(=O)N[C@@H](CO)C(=O)N[C@@H](Cc1ccccc1)C(=O)NCC(=O)N[C@H](Cc1c[nH]c2ccccc12)C(=O)N[C@@H](CCCNC(=N)N)C(=O)N[C@@H](Cc1ccccc1)C(N)=O
B3: 201 (peptide)
peptide: Ac-FGARW-NH2
notes: kisspeptin-10 analogue; also called acFGARW
B4: 243 (peptide)
peptide: Ac-[dW]NWNGFG[dW]RF-NH2
SMILES: CC(=O)N[C@H](Cc1c[nH]c2ccccc12)C(=O)N[C@@H](CC(N)=O)C(=O)N[C@@H](Cc1c[nH]c2ccccc12)C(=O)N[C@@H](CC(N)=O)C(=O)NCC(=O)N[C@@H](Cc1ccccc1)C(=O)NCC(=O)N[C@H](Cc1c[nH]c2ccccc12)C(=O)N[C@@H](CCCNC(=N)N)C(=O)N[C@@H](Cc1ccccc1)C(N)=O
B5: 246 (peptide)
peptide: Ac-[dA]NWNG[dW]G[dW]RF-NH2
SMILES: CC(=O)N[C@H](C)C(=O)N[C@@H](CC(N)=O)C(=O)N[C@@H](Cc1c[nH]c2ccccc12)C(=O)N[C@@H](CC(N)=O)C(=O)NCC(=O)N[C@H](Cc1c[nH]c2ccccc12)C(=O)NCC(=O)N[C@H](Cc1c[nH]c2ccccc12)C(=O)N[C@@H](CCCNC(=N)N)C(=O)N[C@@H](Cc1ccccc1)C(N)=O
B6: 244 (peptide)
peptide: Ac-[dF]NWNGFG[dW]RF-NH2
SMILES: CC(=O)N[C@H](Cc1ccccc1)C(=O)N[C@@H](CC(N)=O)C(=O)N[C@@H](Cc1c[nH]c2ccccc12)C(=O)N[C@@H](CC(N)=O)C(=O)NCC(=O)N[C@@H](Cc1ccccc1)C(=O)NCC(=O)N[C@H](Cc1c[nH]c2ccccc12)C(=O)N[C@@H](CCCNC(=N)N)C(=O)N[C@@H](Cc1ccccc1)C(N)=O
B7: 275 (peptide)
peptide: Ac-[dA]NWN[dP]FG[dW]RF-NH2
SMILES: CC(=O)N[C@H](C)C(=O)N[C@@H](CC(N)=O)C(=O)N[C@@H](Cc1c[nH]c2ccccc12)C(=O)N[C@@H](CC(N)=O)C(=O)N1CCC[C@@H]1C(=O)N[C@@H](Cc1ccccc1)C(=O)NCC(=O)N[C@H](Cc1c[nH]c2ccccc12)C(=O)N[C@@H](CCCNC(=N)N)C(=O)N[C@@H](Cc1ccccc1)C(N)=O
B8: 274 (peptide)
peptide: Ac-[dA]NWNPFG[dW]RF-NH2
SMILES: CC(=O)N[C@H](C)C(=O)N[C@@H](CC(N)=O)C(=O)N[C@@H](Cc1c[nH]c2ccccc12)C(=O)N[C@@H](CC(N)=O)C(=O)N1CCC[C@H]1C(=O)N[C@@H](Cc1ccccc1)C(=O)NCC(=O)N[C@H](Cc1c[nH]c2ccccc12)C(=O)N[C@@H](CCCNC(=N)N)C(=O)N[C@@H](Cc1ccccc1)C(N)=O
B9: 248 (peptide)
peptide: Ac-[dA]NWNGFGWRF-NH2
SMILES: CC(=O)N[C@H](C)C(=O)N[C@@H](CC(N)=O)C(=O)N[C@@H](Cc1c[nH]c2ccccc12)C(=O)N[C@@H](CC(N)=O)C(=O)NCC(=O)N[C@@H](Cc1ccccc1)C(=O)NCC(=O)N[C@@H](Cc1c[nH]c2ccccc12)C(=O)N[C@@H](CCCNC(=N)N)C(=O)N[C@@H](Cc1ccccc1)C(N)=O
B10: 276 (peptide)
peptide: Ac-[dA]NWNGFG[dL]RF-NH2
SMILES: CC(=O)N[C@H](C)C(=O)N[C@@H](CC(N)=O)C(=O)N[C@@H](Cc1c[nH]c2ccccc12)C(=O)N[C@@H](CC(N)=O)C(=O)NCC(=O)N[C@@H](Cc1ccccc1)C(=O)NCC(=O)N[C@H](CC(C)C)C(=O)N[C@@H](CCCNC(=N)N)C(=O)N[C@@H](Cc1ccccc1)C(N)=O
B11: 237 (peptide)
peptide: Ac-[dY]NWNGFGWRF-NH2
SMILES: CC(=O)N[C@H](Cc1ccc(O)cc1)C(=O)N[C@@H](CC(N)=O)C(=O)N[C@@H](Cc1c[nH]c2ccccc12)C(=O)N[C@@H](CC(N)=O)C(=O)NCC(=O)N[C@@H](Cc1ccccc1)C(=O)NCC(=O)N[C@@H](Cc1c[nH]c2ccccc12)C(=O)N[C@@H](CCCNC(=N)N)C(=O)N[C@@H](Cc1ccccc1)C(N)=O
B12: 245 (peptide)
peptide: Ac-[dY]NWNG[dW]G[dW]RF-NH2
SMILES: CC(=O)N[C@H](Cc1ccc(O)cc1)C(=O)N[C@@H](CC(N)=O)C(=O)N[C@@H](Cc1c[nH]c2ccccc12)C(=O)N[C@@H](CC(N)=O)C(=O)NCC(=O)N[C@H](Cc1c[nH]c2ccccc12)C(=O)NCC(=O)N[C@H](Cc1c[nH]c2ccccc12)C(=O)N[C@@H](CCCNC(=N)N)C(=O)N[C@@H](Cc1ccccc1)C(N)=O
B13: 238 (peptide)
peptide: Ac-[dY]NWNSFG[dW]RF-NH2
SMILES: CC(=O)N[C@H](Cc1ccc(O)cc1)C(=O)N[C@@H](CC(N)=O)C(=O)N[C@@H](Cc1c[nH]c2ccccc12)C(=O)N[C@@H](CC(N)=O)C(=O)N[C@@H](CO)C(=O)N[C@@H](Cc1ccccc1)C(=O)NCC(=O)N[C@H](Cc1c[nH]c2ccccc12)C(=O)N[C@@H](CCCNC(=N)N)C(=O)N[C@@H](Cc1ccccc1)C(N)=O
B14: 277 (peptide)
peptide: Ac-[dA]NWN[dA]FGLRF-NH2
SMILES: CC(=O)N[C@H](C)C(=O)N[C@@H](CC(N)=O)C(=O)N[C@@H](Cc1c[nH]c2ccccc12)C(=O)N[C@@H](CC(N)=O)C(=O)N[C@H](C)C(=O)N[C@@H](Cc1ccccc1)C(=O)NCC(=O)N[C@@H](CC(C)C)C(=O)N[C@@H](CCCNC(=N)N)C(=O)N[C@@H](Cc1ccccc1)C(N)=O

What follows are binders tested against T1, human gpr-54 receptor (human, UniProt Q969F8 1-398) (assay: cell-based or functional assay).
T1 sequence (Q969F8 whole entry): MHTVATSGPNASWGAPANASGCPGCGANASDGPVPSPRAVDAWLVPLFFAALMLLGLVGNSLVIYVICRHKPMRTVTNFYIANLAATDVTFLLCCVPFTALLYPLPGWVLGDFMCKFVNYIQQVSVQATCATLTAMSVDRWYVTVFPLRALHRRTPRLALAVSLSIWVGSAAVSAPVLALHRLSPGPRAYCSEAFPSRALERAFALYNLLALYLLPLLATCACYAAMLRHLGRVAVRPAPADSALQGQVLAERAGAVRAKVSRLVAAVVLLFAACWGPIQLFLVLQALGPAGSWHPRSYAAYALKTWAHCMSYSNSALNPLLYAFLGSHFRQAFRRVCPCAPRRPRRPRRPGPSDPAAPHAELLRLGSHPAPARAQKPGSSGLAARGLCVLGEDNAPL

| IP dose response, peptide alone: EC50 (unlabelled number beside rising curve) [239] | Binder |
| --- | --- |
| 4.99 nM | B1 |

Target: T1, human gpr-54 receptor
Experiment: cell-based or functional assay
Remark: another data set of the same source

| Inhibition of IP stimulation by 10nM Agonist: % Inhibition of Max | Inhibition of IP stimulation by 10nM Agonist: IC50 | IP stimulation (IC50), peptide alone | Binder |
| --- | --- | --- | --- |
| 80% | 8 nM |  | B2 |
| 69% | 7 nM |  | B3 |
| 55% | 10 nM |  | B4 |
| 80% | 50 nM |  | B5 |
| 60% | 10 nM |  | B6 |
| 0% |  | 5 nM | B1 |
| 44% | > 100 nM | 21 nM | B7 |
| 73% | 0.1 nM | 530000 nM | B8 |
| 24% |  |  | Ac-[dY][dN]WNSFG[dW]RF-NH2 [241] |
| 47% | > 100 nM |  | Ac-[dA]NWNGFGL[dR]F-NH2 [278] |
| 79% |  | 20000 nM | Ac-FG[dL]RW-NH2 [191] |
| 64% | 5000 nM |  | B9 |
| 15% |  |  | Ac-[dY][dN]WNGFG[dW]RF-NH2 (also: further groups not given here) [242] |
| 65% | 0.001 nM |  | B10 |
| 57% | 5 nM |  | Ac-RRMKWKKY[dA]NWNGFG[dW]RF-NH2 [Peptide 271] |
| 0% |  | 6400 nM | B11 |
| 66% | 10000 nM |  | B12 |
| 0% |  | 2800 nM | B13 |
| 57% | 0.05 nM | 1500 nM | B14 |
| 39% |  |  | Ac-[dY][dN]WNGFGWRF-NH2 [240] |

The binders below were run against T1, human gpr-54 receptor (assay: whole-cell competition binding against 125I-kisspeptin, CHO cells stably transfected with GPR54 (CPM); the fall of the curve lies between Total and -10 LogM [201]).
Description: Cell monolayers were placed on ice and exposed to 0.5 mls peptide (10 pM-1 uM); the cells were then incubated at 4° C. for 4 hr. After 4 hrs, cells were washed twice with ice cold Dulbecco's phosphate buffered saline (DPBS; with Calcium and Magnesium) and then 0.5 mls 0.1M Sodium Hydroxide (NaOH) were added to cells for 20 minutes, shaking to lyse cells. Lysates were transferred to plastic tubes and bound radioactivity counted on the gamma counter for 60 seconds.

| IC50 | Binder |
| --- | --- |
| 0.00432 nM | B3 |

Target: T1, human gpr-54 receptor
Experiment: cell-based or functional assay
Remark: another data set of the same source

| IP dose response, peptide alone: EC50 (unlabelled number beside rising curve) [237] | IP dose response, peptide alone: EC50 (unlabelled number beside rising curve) [238] | Binder |
| --- | --- | --- |
| 6380 nM |  | B11 |
|  | 2820 nM | B13 |

Target: T1, human gpr-54 receptor
Experiment: cell-based or functional assay
Remark: another data set of the same source

| IP competition with 10nM kisspeptin-10: IC50 [201] | Binder |
| --- | --- |
| 7 nM | B3 |

Target: T1, human gpr-54 receptor
Experiment: cell-based or functional assay
Remark: another data set of the same source

| IP dose response, peptide alone: EC50 (unlabelled number beside rising curve) [191] | Binder |
| --- | --- |
| 26100 nM | Ac-FG[dL]RW-NH2 [191] |
